Data from patent US20260167699A1 (Chugai, published 2026).
Substitutions are numbered along the chain they refer to.

T1: FcγRIIb extracellular domain, C-terminal His tag (human, UniProt P31994 43-217)
T1 construct: extracellular domain; also called 2b
T1 sequence: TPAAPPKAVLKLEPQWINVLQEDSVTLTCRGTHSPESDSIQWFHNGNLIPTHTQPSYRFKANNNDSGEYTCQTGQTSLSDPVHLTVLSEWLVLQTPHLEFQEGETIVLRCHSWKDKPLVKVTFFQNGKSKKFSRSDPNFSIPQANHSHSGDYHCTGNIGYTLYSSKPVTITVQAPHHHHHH

T2: FcγRIIa(H) extracellular domain, C-terminal His tag (human, UniProt P12318 34-217)
T2 construct: extracellular domain; also called 2aH
T2 sequence: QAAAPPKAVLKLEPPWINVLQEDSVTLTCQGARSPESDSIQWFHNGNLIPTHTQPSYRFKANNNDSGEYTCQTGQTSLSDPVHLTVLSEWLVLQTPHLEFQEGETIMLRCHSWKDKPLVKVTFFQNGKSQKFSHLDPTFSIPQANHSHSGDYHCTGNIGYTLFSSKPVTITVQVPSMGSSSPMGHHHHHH

T3: FcγRIIa(R) extracellular domain, C-terminal His tag (human, UniProt P12318 34-217)
T3 construct: extracellular domain; also called 2aR
T3 sequence: T2 sequence with H134R

B1: GpH7-A5/GpH7-B3 variant S298_16H/GpL16-k0 (antibody, human IgG1, kappa)
heavy 1: not shown
heavy 2: not shown
light: DIVMTQSPLSLPVTPGEPASISCQASESLVHSNRNTYLHWYLQKPGQSPQLLIYKVSNRFSGVPDRFSGSGSGTDFTLKISRVEAEDVGVYYCSQNTHVPPTFGQGTKVEIERTVAAPSVFIFPPSDEQLKSGTASVVCLLNNFYPREAKVQWKVDNALQSGNSQESVTEQDSKDSTYSLSSTLTLSKADYEKHKVYACEVTHQGLSSPVTKSFNRGEC
notes: heterodimerized IgG1, one H chain mutated; also called He Ab; copies: 1 + 1 + 2
B2: GpH7-A5/GpH7-B3 variant Y296_02A/GpL16-k0 (antibody, human IgG1, kappa)
heavy 1: not shown
heavy 2: not shown
light: B1 light
notes: as for B1
B3: GpH7-A5/GpH7-B3 variant S324_19Q/GpL16-k0 (antibody, human IgG1, kappa)
heavy 1: not shown
heavy 2: not shown
light: B1 light
notes: as for B1
B4: GpH7-A5/GpH7-B3 variant Y296_03V/GpL16-k0 (antibody, human IgG1, kappa)
heavy 1: not shown
heavy 2: not shown
light: B1 light
notes: as for B1
B5: GpH7-A5/GpH7-B3 variant Y296_07I/GpL16-k0 (antibody, human IgG1, kappa)
heavy 1: not shown
heavy 2: not shown
light: B1 light
notes: as for B1
B6: GpH7-A5/GpH7-B3 variant S324_09D/GpL16-k0 (antibody, human IgG1, kappa)
heavy 1: not shown
heavy 2: not shown
light: B1 light
notes: as for B1
B7: GpH7-A5/GpH7-B3 variant Y296_09D/GpL16-k0 (antibody, human IgG1, kappa)
heavy 1: not shown
heavy 2: not shown
light: B1 light
notes: as for B1
B8: GpH7-A5/GpH7-B3 variant Y296_08L/GpL16-k0 (antibody, human IgG1, kappa)
heavy 1: not shown
heavy 2: not shown
light: B1 light
notes: as for B1
B9: GpH7-A5/GpH7-B3 variant S324_07I/GpL16-k0 (antibody, human IgG1, kappa)
heavy 1: not shown
heavy 2: not shown
light: B1 light
notes: as for B1
B10: GpH7-A5/GpH7-B3 variant S324_11K/GpL16-k0 (antibody, human IgG1, kappa)
heavy 1: not shown
heavy 2: not shown
light: B1 light
notes: as for B1
B11: GpH7-A5/GpH7-B3 variant S324_08L/GpL16-k0 (antibody, human IgG1, kappa)
heavy 1: not shown
heavy 2: not shown
light: B1 light
notes: as for B1
B12: GpH7-A5/GpH7-B3 variant S324_10E/GpL16-k0 (antibody, human IgG1, kappa)
heavy 1: not shown
heavy 2: not shown
light: B1 light
notes: as for B1
B13: GpH7-A5/GpH7-B3 variant Y296_10E/GpL16-k0 (antibody, human IgG1, kappa)
heavy 1: not shown
heavy 2: not shown
light: B1 light
notes: as for B1
B14: GpH7-A5/GpH7-B3 variant S324_12R/GpL16-k0 (antibody, human IgG1, kappa)
heavy 1: not shown
heavy 2: not shown
light: B1 light
notes: as for B1
B15: GpH7-A5/GpH7-B3 variant S324_03V/GpL16-k0 (antibody, human IgG1, kappa)
heavy 1: not shown
heavy 2: not shown
light: B1 light
notes: as for B1
B16: GpH7-A5/GpH7-B3 variant S298_19Q/GpL16-k0 (antibody, human IgG1, kappa)
heavy 1: not shown
heavy 2: not shown
light: B1 light
notes: as for B1
B17: GpH7-A5/GpH7-B3 variant S324_15Y/GpL16-k0 (antibody, human IgG1, kappa)
heavy 1: not shown
heavy 2: not shown
light: B1 light
notes: as for B1
B18: GpH7-A5/GpH7-B3 variant S324_18N/GpL16-k0 (antibody, human IgG1, kappa)
heavy 1: not shown
heavy 2: not shown
light: B1 light
notes: as for B1
B19: GpH7-A5/GpH7-B3 variant Y296_04F/GpL16-k0 (antibody, human IgG1, kappa)
heavy 1: not shown
heavy 2: not shown
light: B1 light
notes: as for B1
B20: GpH7-A5/GpH7-B3 variant S324_04F/GpL16-k0 (antibody, human IgG1, kappa)
heavy 1: not shown
heavy 2: not shown
light: B1 light
notes: as for B1
B21: GpH7-A5/GpH7-B3 variant Y296_01G/GpL16-k0 (antibody, human IgG1, kappa)
heavy 1: not shown
heavy 2: not shown
light: B1 light
notes: as for B1
B22: GpH7-A5/GpH7-B3 variant S324_14T/GpL16-k0 (antibody, human IgG1, kappa)
heavy 1: not shown
heavy 2: not shown
light: B1 light
notes: as for B1
B23: GpH7-A5/GpH7-B3 variant Y296_06M/GpL16-k0 (antibody, human IgG1, kappa)
heavy 1: not shown
heavy 2: not shown
light: B1 light
notes: as for B1
B24: GpH7-A5/GpH7-B3 variant Y296_11K/GpL16-k0 (antibody, human IgG1, kappa)
heavy 1: not shown
heavy 2: not shown
light: B1 light
notes: as for B1

Assays:
Test in all cases: SPR; He Ab vs HeCon Ab (GpH7-A5/GpH7-B3/GpL16-k0)=100;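 further: surface plasmon resonance at 25 °C with the test antibody captured on a sensor chip via antigenic peptide, protein L or protein A/G and FcγR flowed over as analyte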
[1] = target: T4, FcγRIa extracellular domain, C-terminal His tag (human, UniProt P12314 16-292)
T4 construct: extracellular domain; also called 1a
T4 sequence (P12314 other isoform, or with tags, fused parts or gaps): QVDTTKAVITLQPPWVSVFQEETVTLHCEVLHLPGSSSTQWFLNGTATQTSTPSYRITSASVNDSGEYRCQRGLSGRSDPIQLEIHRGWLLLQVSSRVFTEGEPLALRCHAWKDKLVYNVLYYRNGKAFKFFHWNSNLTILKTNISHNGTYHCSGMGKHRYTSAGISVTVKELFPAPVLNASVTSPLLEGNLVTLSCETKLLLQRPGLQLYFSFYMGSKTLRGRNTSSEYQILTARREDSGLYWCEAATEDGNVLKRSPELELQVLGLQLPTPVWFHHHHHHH

[2] = target: T1, FcγRIIb extracellular domain, …
[3] = target: T2, FcγRIIa(H) extracellular domain, …
[4] = target: T3, FcγRIIa(R) extracellular domain, …
[5] = target: T5, FcγRIIIa extracellular domain, C-terminal His tag (human, UniProt P08637 17-208)
T5 construct: extracellular domain; also called 3a
T5 sequence (P08637 other isoform, or with tags, fused parts or gaps): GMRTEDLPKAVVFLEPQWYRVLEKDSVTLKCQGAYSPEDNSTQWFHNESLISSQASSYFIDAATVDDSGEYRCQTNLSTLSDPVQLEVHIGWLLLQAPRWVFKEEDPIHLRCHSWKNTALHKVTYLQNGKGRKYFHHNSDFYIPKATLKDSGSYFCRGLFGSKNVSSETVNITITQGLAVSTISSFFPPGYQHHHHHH

| Binder | He/Con 1a [1] [%] | He/Con 2b [2] [%] | He/Con 2aH [3] [%] | He/Con 2aR [4] [%] | He/Con 3a [5] [%] |
| --- | --- | --- | --- | --- | --- |
| B1 | 105 | 64.4 | 80.2 | 84.7 | 71.9 |
| B2 | 99.8 | 83.1 | 89.1 | 93 | 66.3 |
| B3 | 106 | 87.2 | 106 | 86.8 | 96.2 |
| B4 | 101 | 80.4 | 86.9 | 92 | 69.1 |
| B5 | 101 | 85.5 | 92.7 | 96.7 | 75.8 |
| B6 | 97.7 | 112 | 117 | 102 | 110 |
| B7 | 103 | 100 | 102 | 101 | 89 |
| B8 | 101 | 83.5 | 86.9 | 93.7 | 72.4 |
| B9 | 96.2 | 125 | 107 | 109 | 101 |
| B10 | 96.3 | 89.6 | 102 | 91 | 90.2 |
| B11 | 97.3 | 117 | 106 | 110 | 95.5 |
| B12 | 98.9 | 101 | 114 | 99 | 108 |
| B13 | 102 | 99.4 | 94 | 98.2 | 76.8 |
| B14 | 95.9 | 82.4 | 107 | 84 | 98.1 |
| B15 | 97.7 | 128 | 108 | 113 | 101 |
| B16 | 106 | 74.3 | 88.9 | 90.9 | 70.6 |
| B17 | 107 | 115 | 114 | 107 | 110 |
| B18 | 109 | 106 | 109 | 101 | 103 |
| B19 | 101 | 101 | 97.8 | 105 | 79.5 |
| B20 | 103 | 99.9 | 106 | 99.6 | 99.3 |
| B21 | 99.4 | 80.4 | 91.6 | 91.6 | 51.3 |
| B22 | 114 | 115 | 107 | 93.9 | 112 |
| B23 | 101 | 89 | 94.2 | 96.8 | 74.6 |
| B24 | 102 | 73.8 | 83.7 | 90.3 | 53.3 |
